Assay results as given in patent publication US20200031807.

Target: GST-histone H3 [GST: P08515]
Sequence (P08515 whole entry, looked up): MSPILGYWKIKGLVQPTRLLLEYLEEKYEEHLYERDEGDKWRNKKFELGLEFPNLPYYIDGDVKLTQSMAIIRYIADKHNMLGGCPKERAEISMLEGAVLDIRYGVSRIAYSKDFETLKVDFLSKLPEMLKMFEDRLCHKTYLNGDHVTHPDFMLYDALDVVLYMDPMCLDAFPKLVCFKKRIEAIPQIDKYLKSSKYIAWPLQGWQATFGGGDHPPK

B1: Flag-tagged AURKB protein (protein)
chain: MAQKENSYPWPYGRQTAPSGLSTLPQRVLRKEPVTPSALVLMSRSNVQPTAAPGQKVMENSSGTPDILTRRHFTIDDFEIGRPLGKGKFGNVYLAREKKSHFIVALKVLFKSQIEKEGVEHQLRREIEIQAHLHHPNILRLYNYFYDRRRIYLILEYAPRGELYKELQKSCTFDEQRTATIMEELADALMYCHGKKVIHRDIKPENLLLGLKGELKIADFGWSVHAPSLRRKTMCGTLDYLPPEMIEGRMHNEKVDLWCIGVLCYELLVGNPPFESASHNETYRRIVKVDLKFPASVPMGAQDLISKLLRHNPSERLPLAQVSAHPWVRANSRRVLPPSALQSVA
  in vitro phosphorylation, read by western blot: the Flag-AURKB protein had kinase activity and can phosphorylate histone H3
